Biological target: αvβ3 integrin on rat smooth muscle cells (RSMC) (rat)
Experiment: cell-based or functional assay

Row | Binder | stimulation of RSMC migration (Boyden chamber chemotaxis) [fold] | IC50 of inhibition of VN-induced migration of RSMC (Boyden chamber chemotaxis) [pM]
1 | IQEGEEGRPKDDR [peptide D2A, synthetic peptide of domain 2 of human uPAR (aa130-142)] | 3 | –
2 | IQEGAAGRPKDDR [peptide D2A-Ala (D2A with the two glutamic acids of GEEG changed into alanines)] | – | 0.01 to 0.02

From patent US20080280833A1 (published 2008)
